Measured values published in patent US20050214219A1, “24p3 receptors and uses thereof” (priority 2003, published 2005).
Counter-ions that a name gives are not always drawn.

Tests used:
HIFIα and Nip3 = assay: expression of HIFIα and Nip3 (response to decreased intracellular iron); format: cell-based
Procedure: It is well established that iron chelators can induce apoptosis. […] To examine this possibility, the expression of two genes, HIFIα and Nip3, was analyzed. The two genes are unregulated in response to decreased intracellular iron concentration. As a control, cells were treated with the bacterial siderophore desferrioxamine (DFO), an iron chelator, and analyzed in parallel.

[1] = test system: calcein-loaded HeLa cells; assay: intracellular iron in living cells with iron-sensing dye calcein; format: cell-based; settings: for calcein fluorescence (inverse to intracellular iron level): calcein-loaded HeLa cells expressing 24p3 receptor, FIG. 3
Procedure: In this particular example, intracellular iron levels were measured in living cells using the iron-sensing dye calcein. Calcein is a fluorescent, cell permeable dye. Because its fluorescence is quenched upon iron binding, calcein can be used to measure free (also called labile or chelatable) iron in living cells.

[2] = test system: HeLa/24p3R-L, HeLa/24p3R-S, or HeLa/X7 cells; assay: intracellular iron monitored by expression of iron-regulated genes ferritin and transferrin receptor 1; format: cell-based
Procedure: Experiments were performed to determine whether 24p3R expression would confer on cells the ability to deliver iron in a 24p3-dependent fashion. In these experiments, as well as those described below, three preparations of 24p3 were used: bacterially derived iron-loaded 24p3 (holo-24p3), bacterially derived iron-lacking 24p3 (apo-24p3), and conditioned medium (CM) from cytokine-deprived FL5.12 cells, which contains 24p3 (FL5.12-24p3). The three preparations of 24p3 were added to HeLa/24p3R-L, HeLa/24p3R-S, or HeLa/X7 cells, and, as a control, iron-containing transferrin (holo-transferrin) was added in parallel samples. To monitor intracellular iron concentration, the expression of two iron-regulated genes, ferritin and transferrin receptor 1 were examined.

24p3-mediated apoptosis = assay: ability of holo-transferrin to block 24p3-mediated apoptosis; format: cell-based
From the text: If the basis of 24p3-mediated apoptosis is in fact decreased intracellular iron concentration, then apoptosis should be prevented by iron delivery. To test this prediction, the ability of holo-transferrin to block 24p3-mediated apoptosis was examined.

24p3R [3] = assay: ligand-cell binding of 32P-labeled 24p3 to HeLa cells ectopically expressing 24p3R; design: species or system murine
24p3R, sequence (as listed by the source): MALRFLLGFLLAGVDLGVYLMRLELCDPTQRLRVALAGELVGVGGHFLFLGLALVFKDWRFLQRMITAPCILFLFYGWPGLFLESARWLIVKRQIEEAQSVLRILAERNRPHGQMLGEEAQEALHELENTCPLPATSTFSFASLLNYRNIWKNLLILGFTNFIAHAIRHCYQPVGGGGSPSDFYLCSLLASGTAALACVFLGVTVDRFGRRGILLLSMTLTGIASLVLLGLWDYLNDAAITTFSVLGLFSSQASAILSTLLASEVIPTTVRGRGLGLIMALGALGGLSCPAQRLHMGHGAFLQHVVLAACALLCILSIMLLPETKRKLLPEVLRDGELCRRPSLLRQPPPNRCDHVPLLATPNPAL
From the text: HeLa cells expressed only low levels of 24p3R. To perform functional experiments HeLa cell lines were derived that stably express recombinant N-terminal epitope-tagged derivatives of 24p3R-L and 24p3R-S (HeLa/24p3R-L and HeLa/24p3R-S) and, as a control, the empty expression vector (HeLa/X7). Immunoblot analysis confirmed expression of 24p3R in HeLa/24p3R-L and HeLa/24p3R-S cells.
To determine whether the ectopically expressed 24p3R was able to bind 24p3, a series of ligand-cell binding experiments were performed. […] Binding of ^32P-labeled 24p3 to HeLa/24p3R-L and HeLa/24p3R-S was saturable and blocked by the addition of an excess of unlabeled 24p3. […] Thus, ectopically expressed 24p3R can bind to 24p3.

24p3R [4] = assay: Internalization assay of 32P-24p3; format: cell-based, murine
Procedure: HeLa cells constitutively expressing 24p3R were treated with ^32P-24p3 and at various time points cells were washed three times with PBS and incubated for 15 minutes in proteinase K, trypsin, and EDTA solution to remove the extracellular portion of the receptor. The dislodged cells were then collected and counted.
24p3 and other lipocalins are internalized following binding to their cell surface receptor. […] Thus, cells ectopically expressing 24p3R can be used as reagents for examining the function of 24p3 and 24p3R as well as in assays to identify compounds that affect expression or activity of a 24p3R or a 24p3 (e.g., 24p3 or NGAL).

[5] = test system: 32D cells or 32D/BCR-ABL^p190 cells; assay: cellular ligand-uptake of fluorescently derivatized 24p3 by fluorescence microscopy; format: cell-based, mouse
Procedure: A cellular ligand-uptake experiment was performed in which 24p3 was fluorescently derivatized, added to 32D cells or 32D/BCR-ABL^p190 cells, and 24p3 internalization analyzed by fluorescence microscopy.

[6] = test system: HeLa/24p3R-L, HeLa/24p3R-S, or HeLa/X7 cells; assay: colorimetric determination of intracellular free (non-haem) iron concentration; format: cell-based
Procedure: Colorimetric determination of intracellular non-haem iron concentration was measured as described by Leardi et al., (1998, Br. J. Haematol., 102:746-752) with modifications. Briefly, cells were washed twice with ice-cold PBS and then lysed with lysis buffer (1% TRITON™-X100, 10% glycerol. 25 mM HEPES, pH 7.4, in PBS) and incubated with 0.3 N HCl. The proteins in the lysates were precipitated with 10% TCA (trichloroacetic acid) and centrifuged at 1200×g for 15 minutes. The lysates were then mixed with iron chromogen, FERROZINE® (Sigma) in iron buffer reagent (1.5% hydroxylamine HCl in acetate buffer, pH 4.5) and the absorbance was measured spectrophotometrically at 560 nm. The non-heme iron concentration was measured by interpolating the absorbance of each sample using preset iron standards (Sigma) and expressed as mg/dL.
To confirm the results disclosed above, a […] assay that directly measures free iron concentration was employed.

[7] = test system: HeLa/24p3R-L, HeLa/24p3R-S, or HeLa/X7 cells; assay: 24p3-dependent apoptosis by annexin V-FITC staining; format: cell-based; settings: for apoptosis (annexin V-FITC staining; confirmed by PARP and caspase 3 cleavage): HeLa/24p3R-L and HeLa/24p3R-S cells
Procedure: To examine the ability of 24p3R to mediate 24p3-dependent apoptosis, different preparations of 24p3 were added to the three HeLa cell lines described above and apoptosis was analyzed by annexin V-FITC staining. […] Apoptosis was confirmed by analyzing proteolytic cleavage of PARP (poly(ADP-ribose)polymerase) and caspase 3.

[8] = HeLa/24p3R-L and HeLa/24p3R-S cells

Question: `CC(=O)N(O)CCCCCNC(=O)CCC(=O)N(O)CCCCCNC(=O)CCC(=O)N(O)CCCCCN` [DFO, deferoxamine mesylate, reference compound] was tested. Which “expression of HIFIα and Nip3” value (HIFIα and Nip3; all three HeLa cell lines) did it give?
Answer: induced expression of HIFIα and Nip3

Question: What about the “calcein fluorescence (inverse to intracellular iron level)” value (from here on “calcein fluorescence”) [1] of the same molecule?
Answer: large increase in fluorescence emission

Question: What about the “intracellular iron levels (calcein)” value ([1]; control HeLa cells (HeLa/X7)) of the same molecule?
Answer: altered iron levels

Question: “holo-transferrin: iron-containing transferrin, used as control [reference compound]” was tested. Which “intracellular iron concentration (ferritin / transferrin receptor 1 expression)” value ([2]; all three HeLa cell lines) did it give?
Answer: increased iron concentration

Question: And the levels of ferritin ([2]; all three HeLa cell lines)?
Answer: increased levels of ferritin

Question: And the “levels of transferrin receptor 1” value ([2]; all three HeLa cell lines)?
Answer: decreased levels of transferrin receptor 1

Question: What about the “effect on apoptosis by 24p3” value (24p3-mediated apoptosis) of the same molecule?
Answer: blocked apoptosis by 24p3

Question: What about the “effect on apoptosis induced by other agents” value (24p3-mediated apoptosis; apoptosis induced by etoposide or staurosporine) of the same molecule?
Answer: had no effect

B1: 24p3: recombinant mouse lipocalin 24p3, ligand of 24p3R; used 32P-labeled or fluorescently derivatized (protein)
chain: QDSTQNLIPAPSLLTVPLQPDFRSDQFRGRWYVVGLAGNAVQKKTEGSFTMYSTIYELQENNSYNVTSILVRDQDQGCRYWIRTFVPSSRAGQFTLGNMHRYPQVQSYNVQVATTDYNQFAMVFFRKTSENKQYFKITLYGRTKELSPELKERFTRFAKSLGLKDDNIIFSVPTDQCIDN
Question: What does the source list for B1?
Answer: binding of 32P-labeled 24p3 to cells (24p3R [3]; [8]): bound to HeLa/24p3R-L and HeLa/24p3R-S cells; binding of 32P-labeled 24p3 to cells (24p3R [3]; HeLa/X7 cells (empty vector control)): not to HeLa/X7 cells; internalization of 32P-labeled 24p3 (24p3R [4]; [8]): internalized by HeLa/24p3R-L and HeLa/24p3R-S cells; internalization of 32P-labeled 24p3 (24p3R [4]; HeLa/X7 cells): not by HeLa/X7 cells; internalization of fluorescently labeled 24p3 ([5]; 32D cells): internalized; internalization of fluorescently labeled 24p3 ([5]; 32D/BCR-ABL^p190 cells): not 32D/BCR-ABL^p190 cells

B2: apo-24p3: bacterially derived iron-lacking 24p3 (protein)
chain: QDSTQNLIPAPSLLTVPLQPDFRSDQFRGRWYVVGLAGNAVQKKTEGSFTMYSTIYELQENNSYNVTSILVRDQDQGCRYWIRTFVPSSRAGQFTLGNMHRYPQVQSYNVQVATTDYNQFAMVFFRKTSENKQYFKITLYGRTKELSPELKERFTRFAKSLGLKDDNIIFSVPTDQCIDN
Question: How did the “intracellular iron concentration (ferritin / transferrin receptor 1 expression)” value ([2]; all three HeLa cell lines) turn out when B2 was run?
Answer: did not increase intracellular iron

Question: And the “free iron concentration (colorimetric assay)” value (“free iron concentration” for short) [6, 8]?
Answer: substantially reduced free iron concentration

Question: And the “apoptosis (annexin V-FITC staining; confirmed by PARP and caspase 3 cleavage)” value [7]?
Answer: induced apoptosis

Question: What about the “apoptosis (annexin V-FITC staining)” value ([7]; HeLa/X7 cells) of the same molecule?
Answer: not in HeLa/X7 cells

Question: What about the “HIFIα levels and Nip3 transcription” value (HIFIα and Nip3; HeLa/24p3R-S cells) of the same molecule?
Answer: increased HIFα levels and Nip3 transcription

Question: What about the “calcein fluorescence” value [1] of the same molecule?
Answer: large increase in fluorescence emission

B3: holo-24p3: bacterially derived iron-loaded 24p3 (protein)
chain: QDSTQNLIPAPSLLTVPLQPDFRSDQFRGRWYVVGLAGNAVQKKTEGSFTMYSTIYELQENNSYNVTSILVRDQDQGCRYWIRTFVPSSRAGQFTLGNMHRYPQVQSYNVQVATTDYNQFAMVFFRKTSENKQYFKITLYGRTKELSPELKERFTRFAKSLGLKDDNIIFSVPTDQCIDN
Question: How did the “intracellular iron concentration (ferritin / transferrin receptor 1 expression)” value [2, 8] turn out when B3 was run?
Answer: increased intracellular iron concentration

Question: What about the “intracellular iron concentration (ferritin / transferrin receptor 1 expression)” value ([2]; HeLa/X7 cells) of the same molecule?
Answer: not in HeLa/X7 cells

Question: And the “free iron concentration” value [6, 8]?
Answer: increased intracellular iron

Question: What about the “free iron concentration” value ([6]; HeLa/X7 cells) of the same molecule?
Answer: not in HeLa/X7 cells

Question: What about the “apoptosis (annexin V-FITC staining; confirmed by PARP and caspase 3 cleavage)” value [7] of the same molecule?
Answer: failed to induce apoptosis

Question: And the “calcein fluorescence” value [1]?
Answer: decrease in fluorescence intensity
